The conditions of series [1]: cited from earlier work.
Series [2] is described as follows: precipitation of ZP1848 in solution with phosphate and NaCl, same conditions as on the column under RPC1. The series is classed as physicochemical. How it is done:
Additionally, ZP1848 precipitates at neutral pH in solutions containing NaCl, phosphate, NaOH and high ionic strength.
Below in Table 4.1 various formulations of ZP1848 were prepared in 100 mM NaCl and 45 mM phosphate (the buffers are described in Example 1.12) at different pH and/or concentrations in order to reflect the same conditions in solution as present in the column under RPC1.
Additionally, it was shown that ZP1848 precipitates even at low concentrations at pH 7.5 (0.2 and 0.5 mg/mL).

Read-outs that look alike come from different tables or passages of the source.

For the molecule `CC[C@H](C)[C@H](NC(=O)[C@H](Cc1ccccc1)NC(=O)[C@H](CC(=O)O)NC(=O)[C@H](CCCNC(=N)N)NC(=O)[C@H](C)NC(=O)[C@H](C)NC(=O)[C@H](CC(C)C)NC(=O)[C@H](CC(N)=O)NC(=O)[C@H](CC(=O)O)NC(=O)[C@H](CC(C)C)NC(=O)[C@@H](NC(=O)[C@@H](NC(=O)[C@H](CC(N)=O)NC(=O)[C@H](CCSC)NC(=O)[C@H](CCC(=O)O)NC(=O)[C@H](CC(=O)O)NC(=O)[C@H](CO)NC(=O)[C@H](Cc1ccccc1)NC(=O)[C@H](CO)NC(=O)CNC(=O)[C@H](CC(=O)O)NC(=O)CNC(=O)[C@@H](N)Cc1c[nH]cn1)[C@@H](C)O)[C@@H](C)CC)C(=O)N[C@@H](CC(N)=O)C(=O)N[C@@H](Cc1c[nH]c2ccccc12)C(=O)N[C@@H](CC(C)C)C(=O)N[C@H](C(=O)N[C@@H](CCC(N)=O)C(=O)N[C@H](C(=O)N[C@@H](CCCCN)C(=O)N[C@H](C(=O)N[C@H](C(=O)N[C@@H](CC(=O)O)C(=O)O)[C@@H](C)O)[C@@H](C)CC)[C@@H](C)O)[C@@H](C)CC` [teduglutide, [hGly2] GLP-2], the half-life result in series [1] (Gly substitution at position 2, compared with native GLP-2) was “about two”.

Regarding “GLP-2 [3-33]: truncated GLP-2 [3-33] (DGSFSDEMNTILDNLAARDFINWLIQTKITD; Glucagon-like peptide 2; UniProt P01275 148-178, looked up, fragment)”, the half-life in series [1] (in humans) was roughly 27 min.

On to “H-HGEGTFSSELATILDALAARDFIAWLIATKITDKKKKKK-NH2 [ZP1848]”, for which the precipitation in solution result in series [2] (neutral pH, solutions containing NaCl, phosphate, NaOH and high ionic strength) was “precipitates”. For the same molecule, the “precipitation at low concentrations” value in series [2] (pH 7.5, 0.2 and 0.5 mg/mL) is listed as “precipitates”. Moreover, the “precipitation in peptide product solution” value in series [2] (phosphate buffer/phosphoric acid, neutral pH) was “precipitates”. In addition, the “time of precipitation after sample preparation” value in series [2] (same conditions in solution as on the column during RPC1) is “within minutes”. In the case of “Hy-His-Ala-Asp-Gly-Ser-Phe-Ser-Asp-Glu-Met-Asn-Thr-Ile-Leu-Asp-Asn-Leu-Ala-Ala-Arg-Asp-Phe-Ile-Asn-Trp-Leu-Ile-Gln-Thr-Lys-Ile-Thr-Asp-OH [GLP-2 [1-33]]”, in series [1] (in humans), the half-life result is recorded as “around 7 minutes”.

As a reminder, the half-life is how long it takes for the measured level to halve.

These data come from patent publication US20260116943A1, “PROCESSES FOR SYNTHESIZING GLUCAGON-LIKE-PEPTIDE 2 (GLP-2) ANALOGUES” (Zealand Pharma A/S, priority 2021, published 2026).
